According to the Immune Epitope Database (IEDB):

Assays:
Assay in all cases: IEDB peptide-MHC binding, purified MHC/competitive/radioactivity; filed as Kd, often an IC50 or EC50 that approximates it; ≥ and ≤ were set here for values at or beyond the usual limits of such assays
HLA-A*02:03 = biological target: HLA-A*02:03
HLA-A*02:02 = settings: source organism: Vaccinia virus WR
HLA-A*02:06 = biological target: HLA-A*02:06
HLA-A*03:01 = biological target: HLA-A*03:01
HLA-A*11:01 = biological target: HLA-A*11:01
HLA-A*31:01 = biological target: HLA-A*31:01
HLA-A*33:01 = biological target: HLA-A*33:01
HLA-A*68:01 = biological target: HLA-A*68:01
[1] = source organism: Dengue virus 1 Brazil/97-11/1997
[2] = source organism: Vaccinia virus WR
[3] = source organism: SARS coronavirus Tor2
[4] = source organism: Lassa virus Josiah
[5] = source organism: Dengue virus 3 Martinique/1243/1999
[6] = source organism: Mammarenavirus whitewaterense
[7] = source organism: Vaccinia virus Copenhagen

## FLSGKGLGKT
HLA-A*02:03; [1]
  Kd: 32 nM

## ILGIIITVGM
HLA-A*02:02
  Kd: 288 nM
HLA-A*02:03; [2]
  Kd: 265 nM
HLA-A*02:06; [2]
  Kd: 4710 nM

## QQQGQTVTKK
HLA-A*03:01; [3]
  Kd: 6440 nM
HLA-A*11:01; [3]
  Kd: 407 nM
HLA-A*31:01; [3]
  Kd: 13700 nM
HLA-A*33:01; [3]
  Kd: ≥ 70000 nM
HLA-A*68:01; [3]
  Kd: 8240 nM

## SVLRAVLPR
HLA-A*03:01; [4]
  Kd: 208 nM
HLA-A*11:01; [4]
  Kd: 8.96 nM
HLA-A*31:01; [4]
  Kd: 10.6 nM
HLA-A*33:01; [4]
  Kd: 537 nM
HLA-A*68:01; [4]
  Kd: 66.7 nM

## TTIKPVSYK
HLA-A*03:01; [3]
  Kd: 2.04 nM
HLA-A*11:01; [3]
  Kd: 0.759 nM
HLA-A*31:01; [3]
  Kd: 103 nM
HLA-A*33:01; [3]
  Kd: 144 nM
HLA-A*68:01; [3]
  Kd: 1.5 nM

## MVAGGLLLAA
HLA-A*02:06; source organism: Dengue virus 4 Philippines/H241/1956
  Kd: 19.2 nM

## SLKRFTHTT
HLA-A*02:02
  Kd: 825 nM
HLA-A*02:03; [2]
  Kd: 9.05 nM
HLA-A*02:06; [2]
  Kd: ≥ 60100 nM

## RMGMGVTYL
HLA-A*02:03; [5]
  Kd: 115 nM

## LLFMILTVA
HLA-A*02:03; [1]
  Kd: 29.3 nM

## RSDGYFLKIK
HLA-A*03:01; [2]
  Kd: 10400 nM
HLA-A*11:01; [2]
  Kd: 1560 nM
HLA-A*31:01; [2]
  Kd: 5500 nM
HLA-A*33:01; [2]
  Kd: ≥ 70000 nM
HLA-A*68:01; [2]
  Kd: ≥ 70200 nM

## LSDIISAEK
HLA-A*03:01; [2]
  Kd: 946 nM
HLA-A*11:01; [2]
  Kd: 34.1 nM
HLA-A*31:01; [2]
  Kd: 1800 nM
HLA-A*33:01; [2]
  Kd: 12600 nM
HLA-A*68:01; [2]
  Kd: 185 nM

## TSVSAKQLR
HLA-A*03:01; [2]
  Kd: ≥ 78000 nM
HLA-A*11:01; [2]
  Kd: 2810 nM
HLA-A*31:01; [2]
  Kd: 2600 nM
HLA-A*33:01; [2]
  Kd: 9110 nM
HLA-A*68:01; [2]
  Kd: 11.2 nM

## CAAYYFMKFR
HLA-A*03:01; [3]
  Kd: 209 nM
HLA-A*11:01; [3]
  Kd: 65 nM
HLA-A*31:01; [3]
  Kd: 10.9 nM
HLA-A*33:01; [3]
  Kd: 141 nM
HLA-A*68:01; [3]
  Kd: 70.5 nM

## HILHAYCGIK
HLA-A*03:01; [2]
  Kd: 229 nM
HLA-A*11:01; [2]
  Kd: 1390 nM
HLA-A*31:01; [2]
  Kd: 13500 nM
HLA-A*33:01; [2]
  Kd: ≥ 70000 nM
HLA-A*68:01; [2]
  Kd: 2740 nM

## KSTQSVLCVK
HLA-A*03:01; [2]
  Kd: 60.7 nM
HLA-A*11:01; [2]
  Kd: 0.497 nM
HLA-A*31:01; [2]
  Kd: 90 nM
HLA-A*33:01; [2]
  Kd: 11400 nM
HLA-A*68:01; [2]
  Kd: 26.5 nM

## DLKWARFPK
HLA-A*03:01; [3]
  Kd: 5640 nM
HLA-A*11:01; [3]
  Kd: 714 nM
HLA-A*31:01; [3]
  Kd: 391 nM
HLA-A*33:01; [3]
  Kd: 20 nM
HLA-A*68:01; [3]
  Kd: 51.5 nM

## FSGKEPISDY
HLA-A*03:01; [2]
  Kd: ≥ 70100 nM
HLA-A*11:01; [2]
  Kd: ≥ 52400 nM
HLA-A*31:01; [2]
  Kd: ≥ 70000 nM
HLA-A*33:01; [2]
  Kd: ≥ 70000 nM
HLA-A*68:01; [2]
  Kd: ≥ 67000 nM

## VSVDAMIHK
HLA-A*03:01; [2]
  Kd: 1820 nM
HLA-A*11:01; [2]
  Kd: 2.46 nM
HLA-A*31:01; [2]
  Kd: 7140 nM
HLA-A*33:01; [2]
  Kd: ≥ 31900 nM
HLA-A*68:01; [2]
  Kd: 1450 nM

## QKCGELLEFH
HLA-A*03:01; [6]
  Kd: ≥ 70000 nM
HLA-A*11:01; [6]
  Kd: ≥ 69700 nM
HLA-A*31:01; [6]
  Kd: 11300 nM
HLA-A*33:01; [6]
  Kd: ≥ 70000 nM
HLA-A*68:01; [6]
  Kd: ≥ 70100 nM

## SLLRSTSQK
HLA-A*03:01; [3]
  Kd: 2.56 nM
HLA-A*11:01; [3]
  Kd: 12.8 nM
HLA-A*31:01; [3]
  Kd: 802 nM
HLA-A*33:01; [3]
  Kd: 14700 nM
HLA-A*68:01; [3]
  Kd: 3040 nM

## FFAYVMNIER
HLA-A*03:01; [2]
  Kd: 1120 nM
HLA-A*11:01; [2]
  Kd: 10800 nM
HLA-A*31:01; [2]
  Kd: 104 nM
HLA-A*33:01; [2]
  Kd: 15 nM
HLA-A*68:01; [2]
  Kd: 3.22 nM

## TLISSDGAR
HLA-A*03:01; [2]
  Kd: 4090 nM
HLA-A*11:01; [2]
  Kd: 1400 nM
HLA-A*31:01; [2]
  Kd: 80.3 nM
HLA-A*33:01; [2]
  Kd: 198 nM
HLA-A*68:01; [2]
  Kd: 5.13 nM

## GFDAWFSQR
HLA-A*03:01; [3]
  Kd: 17800 nM
HLA-A*11:01; [3]
  Kd: ≥ 29900 nM
HLA-A*31:01; [3]
  Kd: 131 nM
HLA-A*33:01; [3]
  Kd: 654 nM
HLA-A*68:01; [3]
  Kd: 4270 nM

## SITPNNLNK
HLA-A*03:01; [2]
  Kd: 866 nM
HLA-A*11:01; [2]
  Kd: 25.4 nM
HLA-A*31:01; [2]
  Kd: ≥ 77900 nM
HLA-A*33:01; [2]
  Kd: ≥ 77700 nM
HLA-A*68:01; [2]
  Kd: 1450 nM

## NTFPNITLK
HLA-A*03:01; [7]
  Kd: 53.1 nM
HLA-A*11:01; [7]
  Kd: 9.39 nM
HLA-A*31:01; [7]
  Kd: 595 nM
HLA-A*33:01; [7]
  Kd: 164 nM
HLA-A*68:01; [7]
  Kd: 0.779 nM

## QLCDHRLMSA
HLA-A*02:03; [5]
  Kd: 54.2 nM

## SSFIVPEFAK
HLA-A*03:01; [2]
  Kd: 37.4 nM
HLA-A*11:01; [2]
  Kd: 0.534 nM
HLA-A*31:01; [2]
  Kd: 9400 nM
HLA-A*33:01; [2]
  Kd: 9270 nM
HLA-A*68:01; [2]
  Kd: 2.23 nM

## YSSMTSDSK
HLA-A*03:01; [2]
  Kd: 1980 nM
HLA-A*11:01; [2]
  Kd: 10.5 nM
HLA-A*31:01; [2]
  Kd: 4860 nM
HLA-A*33:01; [2]
  Kd: ≥ 21400 nM
HLA-A*68:01; [2]
  Kd: 2.38 nM

## VFLILCFTIK
HLA-A*03:01; [3]
  Kd: 168 nM
HLA-A*11:01; [3]
  Kd: 371 nM
HLA-A*31:01; [3]
  Kd: 613 nM
HLA-A*33:01; [3]
  Kd: 4070 nM
HLA-A*68:01; [3]
  Kd: 965 nM

## KLMEEYLRR
HLA-A*03:01; [2]
  Kd: 11.4 nM
HLA-A*11:01; [2]
  Kd: 9.83 nM
HLA-A*31:01; [2]
  Kd: 5.59 nM
HLA-A*33:01; [2]
  Kd: ≥ 22000 nM
HLA-A*68:01; [2]
  Kd: 1910 nM

## PLHILASNK
HLA-A*03:01; [2]
  Kd: 161 nM
HLA-A*11:01; [2]
  Kd: 6420 nM
HLA-A*31:01; [2]
  Kd: 12500 nM
HLA-A*33:01; [2]
  Kd: ≥ 77700 nM
HLA-A*68:01; [2]
  Kd: 11400 nM
